Measured values reported in article PMC7102982.

Molecular target: Xenopus laevis FANCA, full length (Xenopus laevis)
Experiment: cryo-EM structure; single-particle cryo-EM of the purified FANCA-FANCG complex (0.8 mg/ml, 0.003% DDM); four classes: FANCA CTD dimer at 3.35 and 3.46 A, two FANCA-FANCG complexes at 4.59 and 4.84 A

Xenopus laevis FANCA, full length (natural protein)
stoichiometry N: 2
